In the nanobody polyreactivity screen of Harvey et al. (2022):

Assay: yeast display, Sf9 membrane polyspecificity reagent, FACS + sequencing; frameworks hold sequencing errors
Procedure, shortened: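 Nanobodies from a synthetic yeast display library (Saccharomyces cerevisiae BJ5465), induced 36–48 hours with galactose, were stained 1 hour at 4 °C with 10% biotinylated, detergent-solubilized Sf9 membrane reagent, enriched on streptavidin microbeads, then FACS-sorted. Anti-HA (expression) and streptavidin (reagent binding) fluorescence set low and high (top ~1%) gates. Polyreactivity labels come from the gate of origin. Genes were colony-PCR amplified, MiSeq 2 × 250 sequenced and filtered by CDR length.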

Sequence	polyreactivity (PSR sort gate)
QVQLVESGGGLVQAGGSLRLSCAASGSTFRRNAMGWYRQAPGKERELVAAISRTAGSTYYADSVKGRFTISRDNAKNTVYLQMNSLKPEDTAVYYCNRRYVSTSGELDYWGQGTQVTVSS	high polyreactivity
QVQLVESGGGLVQAGGSLRLSCAASGSTFRRNVMGWYRQAPGKEREFVAAISYRTGSTYYADSVKGRFTISRDNAKNTVYLQMNSLKPEDTAVYYCAASSQWVGYYYWGQGTQVTVSS	high polyreactivity
QVQLVESGGGLVQAGGSLRLSCAASGSTFRRYAMGWSRQAPGKVRELVAAISRTGRTNYADSVKGRFTISRDNAKYTVYLQMNSLKPEDTAFDYCAAKSSTKQRKYYWGQGTQVTVSS	high polyreactivity
QVQLVESGGGLVQAGGSLRLSCAASGSTFRRYAMGWYRQAPGKERELVAAITSGGRTNYADSVKGRFTISRDNAKNTVYLQMNSLKPEDTAVYYCAARYIRGSYGMGYWGQGTQVTVSS	high polyreactivity
QVQLVESGGGLVQAGGSLRLSCAASGSTFRRYAMGWYRQAPGKERELVAGITSGGDTYYADSVKGRFTISRDNAKNTVYLQMNSLKPEDTALYYCARVRYGRMDYWGQGTQVTVSS	high polyreactivity
QVQLVESGGGLVQAGGSLRLSCAASGSTFRRYAMGWYRQAPGKERELVASISRSGGSTYYADSVKGRFTISRDNAKNTVYLQMNSLKPEDTAVYYCAKKPYKSAYDYSSAYDYWGQGTQVTVSS	high polyreactivity
QVQLVESGGGLVQAGGSLRLSCAASGSTFRRYAMGWYRQAPGKERELVASITYRGGSTYYADSVKGRFTISRDNAKNTVYLQMNSLKPEDTAVYYCAKKGVYGPLNEYWGQGTQVTVSS	high polyreactivity
QVQLVESGGGLVQAGGSLRLSCAASGSTFRRYAMGWYRQAPVKERELVAAITRGGITYYADSVKGRFTISRDNAKNTVYLQMNSLKPEDTAVYYCAATTFGPYALYPRYYYWGQGTQVTVSS	high polyreactivity
QVQLVESGGGLVQAGGSLRLSCAASGSTFRSNAMGWYRQAPGKERELVAAIRYSGARTYYADSVKGRFTISRDNAKNTVYLQMNSLKPEDTAVYYCAATLYTRTYSWMDYWGQGTQVTVSS	high polyreactivity
QVQLVESGGGLVQAGGSLRLSCAASGSTFRSNVMGWYRQAPGKAREFVAAITSSSATTYYADSVKGRFTISRDNAKNTVYLQMNSLKPEDTAVYYCAAGGRKAGPAGGQYYYWGQGTQVTVSS	low polyreactivity
QVQLVESGGGLVQAGGSLRLSCAASGSTFRSYAMGWYRPAPGTERELVAAISYSGDSTYYADSVTGRFTISRDIAKNTVFLQMKRLKPVDTAVYYCAALRDWDIQGEPWKRYGYWGQGTQVTVSS	low polyreactivity
QVQLVESGGGLVQAGGSLRLSCAASGSTFRSYAMGWYRQAPGKERELVAAITSGANTNYADSVKGRFTISRDNAKNTVDLQMNSLKPEDTAVYYCAKASYIIFRIEYRSGYDYWGQGTQVTVSS	low polyreactivity
QVQLVESGGGLVQAGGSLRLSCAASGSTFRSYAMGWYRQAPGKERELVAAITWRGGSTDYADSVKGRFTISRDNAKNTVYLQMNSLKPEDTAVYYCAAAIWGDYGAYDYWGQGTQVTVSS	low polyreactivity
QVQLVESGGGLVQAGGSLRLSCAASGSTFRTNGMGWYRQAPGKERELVAAITRGTSTNYADSVKGRFTISRDNAKNTVYLQMNSLKPEDTAVYYCAADVTGGRKYDYWGQGTQVTVSS	low polyreactivity
QVQLVESGGGLVQAGGSLRLSCAASGSTFRTYAKGWYRQAPGKERELVASITRRGGRTYYADSVKGRFTISRDNAKNTVYLQMYSLKPEDTAVYYCAAADQQYDYWGQGTQVTVTS	high polyreactivity
QVQLVESGGGLVQAGGSLRLSCAASGSTFRTYAMGWYRQAPGKERELVAAISVSGGRTYYADSVKGRFTISRDNAKKTVYLQMNSLKPEDTAVYYCAARQYRYELEYWGQGTQVTVSS	low polyreactivity
QVQLVESGGGLVQAGGSLRLSCAASGSTFRTYAMGWYRQAPGKERELVATITRTGGSTYYADSVKGRFTISRDNAKNTVYLQMNSLKPEDTAVYYCAARRSHQYRGPHFNYWGQGTLVTVSS	low polyreactivity
QVQLVESGGGLVQAGGSLRLSCAASGSTFRTYAMGWYRQAPGKERELVAVISASGGSTYYADSVKGRFTISRDNAKNTVYLQMNSLKPEDTAVYYCAVAYSRGRYYYWGQGTQVTVSS	high polyreactivity
QVQLVESGGGLVQAGGSLRLSCAASGSTFRTYAMVWYRQAPGKERELVAAIRSRGGSTYYADSVKGRFTISRDNAKNTVYLQMNSLKPEDTAVYYCNAVPRWSYVDEDSWGQGTQVTVSS	high polyreactivity
QVQLVESGGGLVQAGGSLRLSCAASGSTFRVYAMGWYRQAPGKERELVAAISWSGGRTYYADSVKGRFTISRDNAKNTVYLQMNSLKPEDTAVYYCAKPGYLRPSRYDYWGQGTQVTVSS	high polyreactivity
QVQLVESGGGLVQAGGSLRLSCAASGSTFRVYAMGWYRQAPGKERELVAAITRIGGRTYYADSVKGRFTISRDNAKNTVYLQMNSLKPEDTAVYYCAARYPGGYSSGYNYWGQGTQVTVSS	high polyreactivity
QVQLVESGGGLVQAGGSLRLSCAASGSTFRVYAMGWYRQAPGKERELVANISWGGGRTYYADSVKGRFTISRDNAKNTVYLQMNSLKPEDTAVYYCAADIAWYTHYHRIFDYWGQGTQVTVSS	low polyreactivity

Sequence	polyreactivity (PSR sort gate)
QVQLVESGGGLVQAGGSLRLSCAASGSTFRWNAMGWYTPAPGKERELVAAITSSGSTYYADSVKGRFTISRDNAKNTVYLQMNSLNPEDTAVYSCAGRANGYWNTYELDYWGQGIQVTVSS	low polyreactivity
QVQLVESGGGLVQAGGSLRLSCAASGSTFRWYAMGWYRQAPGKERELVAAIRSSGGSTYYADSVKGRFTISRDNAKNTVYLQMNSLKPEDTAVYYCNTYPARNFYSVAGGYWGQGTQVTVSS	low polyreactivity
QVQLVESGGGLVQAGGSLRLSCAASGSTFRWYAMGWYRQAPGKERELVAAISARGTSTYYADSVKGRFTISRDNAKNTVYLQMNSLKPEDTAVYYCAATRTYQLYRWAPRYYYWGQGTQVTVSS	high polyreactivity
QVQLVESGGGLVQAGGSLRLSCAASGSTFRWYAMGWYRQAPGKERELVAAITWSGGRTYYADSVKGRFTISRDNAKNTVYLQMNSLKPEDTAVYYCAADRGPEHWYDYYYWGQGTQVTVSS	high polyreactivity
QVQLVESGGGLVQAGGSLRLSCAASGSTFRYNAMGWYRQAPGKEREFVAAITTSGVRTYYADSVKGRFTISRDNAKNTVYLQMTSLKPEDSAVYYCAARANYIFYGMDYWGQGTLVTVSS	high polyreactivity
QVQLVESGGGLVQAGGSLRLSCAASGSTFRYNAMGWYRQAPGKERELVAAISKSGGSTYYADSVKGRFTISRDNAKNTVYLQMNSLKPEDTAVYYCAAKAYINNYDYWGQGTQVTVSS	high polyreactivity
QVQLVESGGGLVQAGGSLRLSCAASGSTFRYNAMGWYRQAPGKERELVAAISKSGGSTYYADSVKGRFTISRDNAKNTVYLQMNSLKPEDTAVYYCATSYPYRIYRSSYDYWGQGTQVTVSS	high polyreactivity
QVQLVESGGGLVQAGGSLRLSCAASGSTFRYNAMGWYRQAPGKVRELVASITWSGGDTYYADSVKGRFTISRDNAKNTVYLQMNSLKPEDTAVYYCNKRVHYIAGRGYDYWGQGNQVTVSS	low polyreactivity
QVQLVESGGGLVQAGGSLRLSCAASGSTFRYNAMGWYRQPPGKERELVAAISSGGSTNYADSVKGRFTISRDNAKNTVYLQMNSLKPEDTAVYYCAATRPRIPVYQNNYGYWGQGTQVTVSS	high polyreactivity
QVQLVESGGGLVQAGGSLRLSCAASGSTFRYSAMGWDRQAPGKEREFVAAISWSGSSTYYADSVKGRFTISRDNAKNTVYLQMNILKPEDTAGYYCAARYRYRSSSYDYWGQGTQVTVSS	high polyreactivity
QVQLVESGGGLVQAGGSLRLSCAASGSTFRYYAMGWYRQAPGKERELVAAISGSGGRTYYADSVKGRFTISRDNAKNTVYLQMNSLKPEDTAVYYCAAQCGYYDSAYGSWGQGTQVTVSS	high polyreactivity
QVQLVESGGGLVQAGGSLRLSCAASGSTFRYYAMGWYRQAPGKERELVAAISRSGGRTYYADSVKGRFTISRDNAKNTVYLQMNSLKPEDTAVSYCATRGDGSSWGDHDYWGQGTQVTVSS	high polyreactivity
QVQLVESGGGLVQAGGSLRLSCAASGSTFRYYAMGWYRQAPGKERELVAAISWSGGSTYYADSVKGRFTISRDNAKNTVYLQMNSLKPEDTAVYYCNKAWFPYYYYRFDYWGQGTQVTVSS	high polyreactivity
QVQLVESGGGLVQAGGSLRLSCAASGSTFRYYAMGWYRQAPGKERELVAAITQSGGITYYADSVKGRFTISRDNAKNTVYLQMNSLKPEDTAVYYCAKRYYVDYDYWGQGTHVTVSS	low polyreactivity
QVQLVESGGGLVQAGGSLRLSCAASGSTFRYYAMGWYRQAPGKERELVAAITQSGGITYYADSVKGRFTISRDNAKNTVYLQMNSLKPEDTAVYYCAKRYYVDYDYWGQGTQVTVSS	low polyreactivity
QVQLVESGGGLVQAGGSLRLSCAASGSTFRYYAMGWYRQAPGKERELVAAITQSGGITYYADSVKGRFTISRDNANNTVYLQMNSLKPEDTAVYFCAKRYYVDYDYWGQGTQVTVSS	low polyreactivity
QVQLVESGGGLVQAGGSLRLSCAASGSTFRYYAMGWYRQAPGKERELVAAITSGGSTNYADSVKGRFTISRDNAKNTVYLQMNSLKPEDTAVYYCAAGRRLRHRYNQGGPDYGYWGQGSQVTVSS	low polyreactivity
QVQLVESGGGLVQAGGSLRLSCAASGSTFRYYAMGWYRQAPGKERELVAAITSGGSTNYADSVKGRFTISRDNAKNTVYLQMNSLKPEDTAVYYCAAGRRLRHRYNQGGPDYGYWGQGTQVTVSS	low polyreactivity
QVQLVESGGGLVQAGGSLRLSCAASGSTFRYYAMGWYRQAPGKERELVAAITSSGGRTYYADSVKGRFTISRDNAKNTVYLQMNSLKPEDTAVYYCAAYAYYHTGDDYWGQGTQVTVSS	high polyreactivity
QVQLVESGGGLVQAGGSLRLSCAASGSTFRYYAMGWYRQAPGKERELVATISSGGSTNYADSVKGRFTISRDNAKNTVYLQMNSLKPEDTAVYYCAAAYPQFWYWDYNYWGQGTQVTVSS	high polyreactivity
QVQLVESGGGLVQAGGSLRLSCAASGSTFRYYAMGWYRQAPGKERELVAVISTSGNTYYADSVKGRFTISRDNAKNTVYFQMNSLKPEDTAVYYCAARGVGGQISQEYDYWGQGTQVTVSS	low polyreactivity
